{"source": "patent US5677146A", "about": "“Human amyloid protein precursor homolog and kunitz-type inhibitor” (Zymogenetics, Inc., priority 1995, dated 1997)", "format_in_all_cases": "biochemical", "key": {"Plasmin": {"target": "T1, Plasmin (Homo sapiens, UniProt P00747)", "T1 construct": "Plasmin (10 nM); purchased Kabi", "T1 sequence (P00747 97-580 limits assumed)": "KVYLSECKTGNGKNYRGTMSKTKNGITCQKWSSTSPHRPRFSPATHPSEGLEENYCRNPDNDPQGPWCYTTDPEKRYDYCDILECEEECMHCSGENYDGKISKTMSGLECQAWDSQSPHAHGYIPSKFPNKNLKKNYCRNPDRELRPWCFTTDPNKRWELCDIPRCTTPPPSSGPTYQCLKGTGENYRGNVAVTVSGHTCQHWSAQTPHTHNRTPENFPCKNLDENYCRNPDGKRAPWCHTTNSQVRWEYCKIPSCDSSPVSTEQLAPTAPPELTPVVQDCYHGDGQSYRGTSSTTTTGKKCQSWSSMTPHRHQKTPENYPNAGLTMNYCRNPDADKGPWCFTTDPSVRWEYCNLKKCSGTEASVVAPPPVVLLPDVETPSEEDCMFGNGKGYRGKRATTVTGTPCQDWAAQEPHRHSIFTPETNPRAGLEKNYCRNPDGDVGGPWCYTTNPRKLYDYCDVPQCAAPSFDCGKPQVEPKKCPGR", "T1 sequence (P00747 581-810 limits assumed)": "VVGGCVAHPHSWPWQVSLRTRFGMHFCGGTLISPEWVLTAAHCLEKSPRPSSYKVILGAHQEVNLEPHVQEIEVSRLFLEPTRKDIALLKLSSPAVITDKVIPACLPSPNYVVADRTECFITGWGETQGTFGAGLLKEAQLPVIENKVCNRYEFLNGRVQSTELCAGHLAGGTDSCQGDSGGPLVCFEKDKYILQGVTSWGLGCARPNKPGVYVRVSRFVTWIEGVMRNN", "assay": "Protease inhibitory activity assay, plasmin", "conditions": "1 μM inhibitor; plasmin 10 nM; H-D-Val-Leu-Lys-pNA 0.6 mM; 25° C.", "experimental": "H--D--Val--Leu--Lys--pNA\n(§1) Inhibition assays were performed in microtiter wells in a total volume of 300 μl in 10 mM NaCl, 50 mM Tris-HCl (pH 7.4), 0.01% TWEEN80 (Polyoxyethylenesorbitan monoleate). The reactions were incubated at 25° C. for ten minutes after which the appropriate chromogenic substrate was added to the final concentration listed in Table 2 and the final reaction was incubated for thirty minutes at 25° C. Amidolytic activity was measured at 405 nm or by fluorescence Em at 460 nm."}, "Cathepsin G": {"target": "T2, Cathepsin G (Homo sapiens, UniProt P08311)", "T2 construct": "purified at Novo Nordisk A/S; tissue Novo Nordisk A/S (purified there); host or cells: leukocytes (by the cited method)", "T2 sequence (P08311 21-255)": "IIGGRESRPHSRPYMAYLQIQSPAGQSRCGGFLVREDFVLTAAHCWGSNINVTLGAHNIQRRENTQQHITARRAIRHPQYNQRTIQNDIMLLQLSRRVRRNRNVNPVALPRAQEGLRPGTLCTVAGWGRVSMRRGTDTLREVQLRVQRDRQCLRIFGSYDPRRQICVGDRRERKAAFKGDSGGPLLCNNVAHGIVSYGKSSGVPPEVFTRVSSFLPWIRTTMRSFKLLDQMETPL", "assay": "Protease inhibitory activity assay, cathepsin G", "conditions": "1 μM inhibitor; Suc-Ala-Ala-Pro-Phe-pNA 0.6 mM; 25° C.", "experimental": "Cathepsin G Suc--Ala--Ala--Pro--Phe--pNA\n(§2) purified at Novo Nordisk A/S\n(0.6 mM) (SEQ ID NO: 19)\nas §1"}, "Urokinase": {"target": "T3, Urokinase (Homo sapiens, UniProt P00749)", "T3 construct": "purchased Serono, Freigung, Germany", "assay": "Protease inhibitory activity assay, urokinase", "conditions": "1 μM inhibitor; urokinase 5 nM; <Glu-Gly-Arg-pNA 0.6 mM; 25° C.", "experimental": "as §1"}, "human Factor XIa": {"target": "T4, human Factor XIa (Homo sapiens, UniProt P03951)", "T4 construct": "human Factor XIa (1 nM); purchased Dr. Kazuo Fujikawa, University of Washington, Seattle, WA", "T4 sequence (P03951 19-387 limits assumed)": "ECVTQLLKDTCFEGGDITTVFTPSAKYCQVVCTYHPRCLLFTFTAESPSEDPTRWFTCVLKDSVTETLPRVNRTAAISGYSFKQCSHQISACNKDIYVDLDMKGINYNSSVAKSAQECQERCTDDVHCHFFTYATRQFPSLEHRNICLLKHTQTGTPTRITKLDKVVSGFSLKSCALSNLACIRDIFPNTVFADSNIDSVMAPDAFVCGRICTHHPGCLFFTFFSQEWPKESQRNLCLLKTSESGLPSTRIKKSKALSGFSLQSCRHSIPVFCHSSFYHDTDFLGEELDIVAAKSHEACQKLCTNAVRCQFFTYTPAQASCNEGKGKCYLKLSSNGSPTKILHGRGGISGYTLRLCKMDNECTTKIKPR", "T4 sequence (P03951 388-625 limits assumed)": "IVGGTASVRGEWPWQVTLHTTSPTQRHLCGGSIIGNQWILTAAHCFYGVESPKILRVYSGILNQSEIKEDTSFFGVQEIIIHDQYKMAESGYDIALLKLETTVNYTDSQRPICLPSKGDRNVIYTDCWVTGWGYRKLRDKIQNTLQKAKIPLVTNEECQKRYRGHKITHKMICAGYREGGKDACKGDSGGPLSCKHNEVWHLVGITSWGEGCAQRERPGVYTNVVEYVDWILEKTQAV", "assay": "Protease inhibitory activity assay, Factor XIa", "conditions": "1 μM inhibitor; Factor XIa 1 nM; Boc-Glu(OBzl)-Ala-Arg-MCA 0.12 mM; 25° C.", "experimental": "Boc--Glu(OBzl)--Ala--Arg--MCA\nas §1"}, "[1]": {"test_system": "GL Kallikrein (glandular kallikrein)", "assay": "Protease inhibitory activity assay, glandular kallikrein", "conditions": "1 μM inhibitor; GL kallikrein 1 U/ml; H-D-Val-Leu-Arg-pNA 0.6 mM; 25° C.", "experimental": "H--D--Val--Leu--Arg--pNA\n(§3) Abbreviations in Table 2: rec. refers to recombinant, GL kallikrein refer\n(§4) to glandular kallikrein, and PL kallikrein refers to plasma kallikrein.\nas §1"}, "Chymotrypsin": {"test_system": "Chymotrypsin", "assay": "Protease inhibitory activity assay, chymotrypsin", "conditions": "1 μM inhibitor; chymotrypsin 2.5 nM; MeO-Suc-Arg-Pro-Tyr-pNA 0.6 mM; 25° C.", "experimental": "MeO--Suc--Arg--Pro--Tyr--pNA\nas §1"}, "Leukocyte Elastase": {"target": "T5, Leukocyte Elastase (Homo sapiens, UniProt P08246)", "T5 construct": "purified at Novo Nordisk A/S; tissue Novo Nordisk A/S (purified there); host or cells: leukocytes", "T5 sequence (P08246 30-267)": "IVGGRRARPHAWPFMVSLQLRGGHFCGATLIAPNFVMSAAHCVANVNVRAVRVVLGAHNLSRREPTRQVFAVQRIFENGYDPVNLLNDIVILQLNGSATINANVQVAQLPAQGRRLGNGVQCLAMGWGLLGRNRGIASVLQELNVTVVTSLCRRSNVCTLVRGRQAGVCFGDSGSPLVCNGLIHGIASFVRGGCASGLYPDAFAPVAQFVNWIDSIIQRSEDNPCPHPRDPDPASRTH", "assay": "Protease inhibitory activity assay, leukocyte elastase", "conditions": "1 μM inhibitor; MeO-Suc-Ala-Ala-Pro-Val-pNA 0.6 mM; 25° C.", "experimental": "MeO--Suc--Ala--Ala--Pro--Val--pNA\nas §2, §1"}, "[2]": {"target": "T6, rec. Protein Ca (activated protein C) (Homo sapiens, UniProt P04070)", "T6 construct": "purchased Novo Nordisk A/S", "T6 sequence (P04070 43-197 limits assumed)": "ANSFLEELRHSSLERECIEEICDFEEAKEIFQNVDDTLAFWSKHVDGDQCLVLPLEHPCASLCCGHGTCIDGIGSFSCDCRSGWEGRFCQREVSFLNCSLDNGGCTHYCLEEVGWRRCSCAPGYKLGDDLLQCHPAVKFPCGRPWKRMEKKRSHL", "T6 sequence (P04070 212-461 limits assumed)": "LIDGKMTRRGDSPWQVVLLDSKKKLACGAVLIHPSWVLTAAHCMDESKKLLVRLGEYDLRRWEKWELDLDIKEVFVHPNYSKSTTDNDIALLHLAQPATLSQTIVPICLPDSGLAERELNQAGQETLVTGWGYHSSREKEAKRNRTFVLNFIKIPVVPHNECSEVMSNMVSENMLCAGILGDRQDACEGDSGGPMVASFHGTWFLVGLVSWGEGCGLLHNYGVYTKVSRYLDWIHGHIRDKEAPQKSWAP", "assay": "Protease inhibitory activity assay, activated protein C", "conditions": "1 μM inhibitor; rec. Protein Ca 5 nM; <Glu-Pro-Arg-pNA 0.6 mM; 25° C.", "experimental": "as §1\nr.h. refers to recombinant human, h. refers to human, protein Ca refers t\nactivated protein C; APPH refers to the KunitzType inhibitor domain of […]"}, "human Factor Xa": {"target": "T7, human Factor Xa (Homo sapiens, UniProt P00742)", "T7 construct": "human Factor Xa (3 nM); purchased Dr. I. Schousboe, Copenhagen, Denmark", "T7 sequence (P00742 41-179 limits assumed)": "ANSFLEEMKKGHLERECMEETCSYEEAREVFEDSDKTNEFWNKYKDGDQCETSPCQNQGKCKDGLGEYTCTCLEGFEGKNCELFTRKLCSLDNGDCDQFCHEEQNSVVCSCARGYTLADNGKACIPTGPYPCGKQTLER", "T7 sequence (P00742 235-488 limits assumed)": "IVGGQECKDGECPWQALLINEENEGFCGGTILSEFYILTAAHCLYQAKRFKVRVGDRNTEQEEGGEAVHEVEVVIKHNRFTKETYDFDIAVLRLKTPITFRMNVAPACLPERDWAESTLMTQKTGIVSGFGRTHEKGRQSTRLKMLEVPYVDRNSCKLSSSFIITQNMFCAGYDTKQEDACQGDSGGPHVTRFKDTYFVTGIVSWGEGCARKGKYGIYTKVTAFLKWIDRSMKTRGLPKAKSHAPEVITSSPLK", "assay": "Protease inhibitory activity assay, Factor Xa", "conditions": "1 μM inhibitor; Factor Xa 3 nM; MeO-CO-CHA-Gly-Arg-pNA 0.3 mM; 25° C.", "experimental": "The reactions were incubated at 25° C. for ten minutes after which the appropriate chromogenic substrate was added to the final concentration listed in Table 2 and the final reaction was incubated for thirty minutes at 25° C. Amidolytic activity was measured at 405 nm or by fluorescence Em at 460 nm."}, "[3]": {"target": "T8, PL Kallikrein (plasma kallikrein) (Homo sapiens, UniProt P03952)", "T8 construct": "purchased Kabi", "T8 sequence (P03952 20-390 limits assumed)": "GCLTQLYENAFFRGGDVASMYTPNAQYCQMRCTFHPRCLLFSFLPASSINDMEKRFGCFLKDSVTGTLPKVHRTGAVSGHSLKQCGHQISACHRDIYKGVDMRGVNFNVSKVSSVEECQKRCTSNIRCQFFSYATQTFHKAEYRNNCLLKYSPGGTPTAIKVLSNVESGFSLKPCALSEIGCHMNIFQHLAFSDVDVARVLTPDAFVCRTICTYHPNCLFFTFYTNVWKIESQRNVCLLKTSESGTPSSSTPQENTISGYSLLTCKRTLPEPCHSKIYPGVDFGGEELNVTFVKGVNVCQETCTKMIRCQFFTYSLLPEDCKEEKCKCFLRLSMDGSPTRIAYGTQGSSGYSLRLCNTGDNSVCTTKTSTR", "T8 sequence (P03952 391-638 limits assumed)": "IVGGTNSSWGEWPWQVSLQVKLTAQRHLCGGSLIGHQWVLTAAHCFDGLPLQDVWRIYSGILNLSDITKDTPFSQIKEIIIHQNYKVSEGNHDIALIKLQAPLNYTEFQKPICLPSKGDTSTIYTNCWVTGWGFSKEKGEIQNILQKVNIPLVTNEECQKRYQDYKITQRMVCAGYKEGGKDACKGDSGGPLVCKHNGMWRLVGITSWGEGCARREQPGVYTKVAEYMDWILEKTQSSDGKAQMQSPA", "assay": "Protease inhibitory activity assay, plasma kallikrein", "conditions": "1 μM inhibitor; PL kallikrein 3 nM; H-D-Pro-Phe-Arg-pNA 0.6 mM; 25° C.", "experimental": "(§5) H--D--Pro--Phe--Arg--pNA\nas §3, §4, §1"}, "human Factor XIIa": {"target": "T9, human Factor XIIa (Homo sapiens, UniProt P00748)", "T9 construct": "human Factor XIIa (30 nM); purchased Dr. Walt Kisiel, University of New Mexico, Albuquerque, NM", "T9 sequence (P00748 20-372 limits assumed)": "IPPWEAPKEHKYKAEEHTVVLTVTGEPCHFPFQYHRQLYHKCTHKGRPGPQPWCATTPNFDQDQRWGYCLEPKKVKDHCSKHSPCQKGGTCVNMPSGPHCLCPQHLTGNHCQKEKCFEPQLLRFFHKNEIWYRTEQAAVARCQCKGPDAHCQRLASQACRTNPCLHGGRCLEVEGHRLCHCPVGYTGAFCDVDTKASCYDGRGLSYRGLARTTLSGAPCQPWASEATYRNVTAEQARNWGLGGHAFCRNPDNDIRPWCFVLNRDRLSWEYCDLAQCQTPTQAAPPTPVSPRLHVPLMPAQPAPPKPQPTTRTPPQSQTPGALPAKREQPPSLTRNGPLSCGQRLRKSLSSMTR", "T9 sequence (P00748 373-615 limits assumed)": "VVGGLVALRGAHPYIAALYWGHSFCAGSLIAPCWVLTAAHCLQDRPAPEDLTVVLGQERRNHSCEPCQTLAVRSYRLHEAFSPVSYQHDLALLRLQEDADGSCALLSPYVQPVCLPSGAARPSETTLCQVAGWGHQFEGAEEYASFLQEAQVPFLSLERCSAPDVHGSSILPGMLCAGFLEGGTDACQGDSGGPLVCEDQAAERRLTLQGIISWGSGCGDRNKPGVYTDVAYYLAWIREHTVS", "assay": "Protease inhibitory activity assay, Factor XIIa", "conditions": "1 μM inhibitor; Factor XIIa 30 nM; H-D-Pro-Phe-Arg-pNA 0.6 mM; 25° C.", "experimental": "human Factor XIIa (30 nM)\nas §5, §1"}, "rec. human Factor VIIa": {"target": "T10, rec. human Factor VIIa (Homo sapiens, UniProt P08709)", "T10 construct": "rec. human Factor VIIa; purchased Novo Nordisk A/S", "T10 sequence (P08709 61-212 limits assumed)": "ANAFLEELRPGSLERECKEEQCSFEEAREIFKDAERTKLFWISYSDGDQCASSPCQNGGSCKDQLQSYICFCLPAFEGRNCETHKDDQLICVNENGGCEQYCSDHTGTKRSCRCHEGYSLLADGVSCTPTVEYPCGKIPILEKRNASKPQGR", "T10 sequence (P08709 213-466 limits assumed)": "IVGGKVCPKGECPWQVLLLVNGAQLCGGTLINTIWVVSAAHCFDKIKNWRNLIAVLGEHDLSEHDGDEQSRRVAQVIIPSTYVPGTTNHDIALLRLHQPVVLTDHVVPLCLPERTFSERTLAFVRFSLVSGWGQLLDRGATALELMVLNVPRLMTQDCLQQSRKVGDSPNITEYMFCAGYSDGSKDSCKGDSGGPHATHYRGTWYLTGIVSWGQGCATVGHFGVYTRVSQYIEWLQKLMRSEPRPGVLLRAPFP", "assay": "Protease inhibitory activity assay, Factor VIIa", "conditions": "1 μM inhibitor; Factor VIIa 300 nM; H-D-Ile-Pro-Arg-pNA 0.6 mM; 25° C.", "experimental": "H--D--Ile--Pro--Arg--pNA\nas §1"}, "Trypsin": {"test_system": "Trypsin", "assay": "Protease inhibitory activity assay, trypsin", "conditions": "1 μM inhibitor; trypsin 8 nM; H-D-Val-Leu-Lys-pNA 0.6 mM; 25° C.", "experimental": "Trypsin (8 nM) H--D--Val--Leu--Lys--pNA\nas §1"}}}
{"molecule": "APPH: Kunitz-type inhibitor domain of the human amyloid protein precursor homologue (SEQ ID NO:2 region 53/56/57-110), expressed in yeast (protein) GYIEALAANAGTGFAVAEPQIAMFCGKLNMHVNIQTGKWEPDPTGTKSCFETKEEVLQYCQEMYPELQITNVMEANQRVSIDNWCRRDKKQCKSRFVTPFKCLVGEFVSDVLLVPEKCQFFHKERMEVCENHQHWHTVVKEACLTQGMTLYSYGMLLPCGVDQFHGTEYVCCPQTKIIGSVSKEEEEEDEEEEEEEDEEEDYDVYKSEFPTEADLEDFTEAAVDEDDEDEEEGEEVVEDRDYYYDTFKGDDYNEENPTEPGSDGTMSDKEITHDVKAVCSQEAMTGPCRAVMPRWYFDLSKGKCVRFIYGGCGGNRNNFESEDYCMAVCKAMIPPTPLPTNDVDVYFETSADDNEHARFQKAKEQLEIRHRNRMDRVKKEWEEAELQAKNLPKAERQTLIQHFQAMVKALEKEAASEKQQLVETHLARVEAMLNDRRRMALENYLAALQSDPPRPHRILQALRRYVRAENKDRLHTIRHYQHVLAVDPEKAAQMKSQVMTHLHVIEERRNQILSLLYKVPYVAQEIQEEIDELLQEQRADMDQFTASISETPVDVRVSSEESEEIPPFHPFHPFPALPENEDTQPELYHPMKKGSGVGEQDGGLIGAEEKVINSKNKVDENMVIDETLDVKEMIFNAERVGGLEEERESVGPLREDFSLSS", "values": [{"measurement": "% Inhibition, Plasmin", "setting": "Plasmin", "value": 77, "unit": "%"}, {"measurement": "% Inhibition, Cathepsin G", "setting": "Cathepsin G", "value": 0, "unit": "%"}, {"measurement": "% Inhibition, Urokinase", "setting": "Urokinase", "value": 2, "unit": "%"}, {"measurement": "% Inhibition, h. Factor XIa", "setting": "human Factor XIa", "value": 99.8, "unit": "%"}, {"measurement": "% Inhibition, GI Kallikrein", "setting": "[1]", "value": 97, "unit": "%"}, {"measurement": "% Inhibition, Chymotrypsin", "setting": "Chymotrypsin", "value": 61, "unit": "%"}, {"measurement": "% Inhibition, Leukocyte Elastase", "setting": "Leukocyte Elastase", "value": 4, "unit": "%"}, {"measurement": "% Inhibition, r.h. Protein Ca", "setting": "[2]", "value": 0, "unit": "%"}, {"measurement": "% Inhibition, h. Factor Xa", "setting": "human Factor Xa", "value": 0, "unit": "%"}, {"measurement": "% Inhibition, PL Kallikrein", "setting": "[3]", "value": 69, "unit": "%"}, {"measurement": "% Inhibition, h. Factor XIIa", "setting": "human Factor XIIa", "value": 6, "unit": "%"}, {"measurement": "% Inhibition, r.h. Factor VIIa", "setting": "rec. human Factor VIIa", "value": 15, "unit": "%"}, {"measurement": "% Inhibition, Trypsin", "setting": "Trypsin", "value": 99.6, "unit": "%"}]}
